Assay results taken from patent US20050191294A1 (University of Texas, published 2005).

T1: IL-11Rα of human prostate cancer cells (LNCaP, MDA-PCa-2b) and human prostate cancer tissue sections (human, UniProt Q14626 23-422)
T1 construct: whole, on cells; Endogenous receptor; used both for cell assays and for tissue section overlays; also called IL-11 receptor alpha; interleukin-11 receptor alpha
T1 sequence (looked up): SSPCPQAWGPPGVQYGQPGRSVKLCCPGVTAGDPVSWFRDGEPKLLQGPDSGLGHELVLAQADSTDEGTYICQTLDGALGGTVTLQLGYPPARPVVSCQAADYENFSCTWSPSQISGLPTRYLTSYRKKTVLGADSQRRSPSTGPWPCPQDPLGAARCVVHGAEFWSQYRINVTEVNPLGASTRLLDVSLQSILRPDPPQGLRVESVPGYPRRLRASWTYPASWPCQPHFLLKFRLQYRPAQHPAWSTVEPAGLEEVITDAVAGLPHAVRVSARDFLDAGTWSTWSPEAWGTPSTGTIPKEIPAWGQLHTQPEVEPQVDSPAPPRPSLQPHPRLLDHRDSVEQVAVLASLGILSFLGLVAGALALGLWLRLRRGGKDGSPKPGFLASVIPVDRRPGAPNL

B1: WIFPWIQL (SEQ ID NO:6)-phage (peptide)
peptide: WIFPWIQL
notes: whole phage particles stood in the assay; also called GRP78-targeting phage clone; not shown: pIII coat protein of fd-based phage (fUSE5 vector)
B2: WDLAWMFRLPVG (SEQ ID NO:7)-phage (peptide)
peptide: WDLAWMFRLPVG
notes: as for B1
B3: CGRRAGGSC (SEQ ID NO:1)-displaying phage (peptide, not shown: large carriers)
peptide: CGRRAGGSC
notes: whole phage particles stood in the assay; also called IL-11-mimic phage; IL-11 mimic phage

Columns and labels:
[1] = target: T2, recombinant GRP78 (Stressgen); experiment: phage binding to GRP78 immobilized on microtiter wells, 10^9 TU, bound TU counted
T2 construct: Bought protein; also called Glucose-regulated protein-78; immobilized GRP78
Method: In vitro phage binding assays. GRP78, HSP70, HSP90 (all from Stressgen, Victoria, Canada) and bovine serum albumin (BSA) were immobilized on microtiter wells of 96-well plates overnight at 4° C. Wells were washed twice with phosphate-buffered saline (PBS), blocked with PBS containing 3% BSA for 1 hour at room temperature (RT), and incubated with 10⁹ transducing units (TU) of […] (SEQ ID NO:6)-phage, […] (SEQ ID NO:7)-phage, or insertless control phage (Fd-tet) in 50 μl of PBS containing 1.5% BSA. After 2 hours at RT, wells were washed with PBS, and bound phage were recovered by infection with host bacteria (log-phase Escherichia coli K91 kan; OD₆₀₀≈2). Aliquots of the bacterial culture were plated onto Luria-Bertani broth (LB) agar plates supplemented with 40 μg/ml tetracycline and 100 μg/ml kanamycin. Plates were incubated overnight at 37° C., and phage TU were counted in triplicate plates. Increasing concentrations of synthetic peptides […] (SEQ ID NO:6), […] (SEQ ID NO:7)-, and an unrelated control peptide CARAC (SEQ ID NO:9) (Genemed Synthesis Inc., San Francisco, Calif.) were used to evaluate competitive inhibition of phage binding. All peptides were solubilized in a standard stock solution of 10% dimethylsulfoxide (DMSO) and diluted to working concentrations for the assays.
Peptide aptamers bind specifically to immobilized GRP78. […]

[2] = target: T3, GRP78 of human prostate cancer cells (DU145 cell surface; human prostate cancer bone metastasis sections) (human, UniProt P11021 19-654); experiment: BRASIL aqueous-organic phase separation, phage on intact DU145 cells
T3 construct: whole, on cells; Endogenous protein; used for the intact-cell (BRASIL) assay and for tissue section overlays; also called GRP78 expressed on the membrane of the prostate cancer cells
Method: Cell-binding assays. Biopanning and Rapid Analysis of Selective Interactive Ligands (BRASIL) method was used to evaluate phage binding to intact cells. In brief, cultured human prostate cancer-derived DU 145 cells were detached with ethylenediaminetetraacetate (EDTA) and resuspended in Dulbecco's modified Eagle's medium (DMEM) containing 1% BSA at 4×10⁶ cells per ml. The cell suspension (50 μl) was incubated with 10⁹ of […] (SEQ ID NO:6)—phage, […] (SEQ ID NO:7)—phage, or insertless Fd-tet phage (negative control) at 4° C. in constant slow rotation. After 2 hours, the phage/cell mixture (aqueous phase) was gently transferred to the top of a non-miscible organic phase (200 μl solution in a 400 μl Eppendorf tube) consisting of dibutyl phtalate:cyclohexane (9:1 [v:v]; d=1.03 g ml⁻¹) and centrifuiged at 10,000 g for 10 minutes at 4° C. The tube was then snap frozen in liquid nitrogen, the bottom of the tube was sliced off, and the cell-phage pellet was isolated. Cell membrane bound phage were recovered by infection with the host bacteria.
GRP78-binding phage clones bind specifically to prostate cancer cells. Having determined the binding specificity of aptamers to GRP78 in vitro, the binding of filamentous phage clones displaying […] […] (SEQ ID NO:7) (FIG. 5B) 580 to intact DU145 human prostate cancer cells by using an aqueous-organic phase separation was evaluated. […]

[3] = target: T1, IL-11Rα of human prostate cancer cells …; experiment: phage overlay on human prostate cancer tissue sections, compared with anti-IL-11Rα antibody staining

T3 sequence (P11021 19-654): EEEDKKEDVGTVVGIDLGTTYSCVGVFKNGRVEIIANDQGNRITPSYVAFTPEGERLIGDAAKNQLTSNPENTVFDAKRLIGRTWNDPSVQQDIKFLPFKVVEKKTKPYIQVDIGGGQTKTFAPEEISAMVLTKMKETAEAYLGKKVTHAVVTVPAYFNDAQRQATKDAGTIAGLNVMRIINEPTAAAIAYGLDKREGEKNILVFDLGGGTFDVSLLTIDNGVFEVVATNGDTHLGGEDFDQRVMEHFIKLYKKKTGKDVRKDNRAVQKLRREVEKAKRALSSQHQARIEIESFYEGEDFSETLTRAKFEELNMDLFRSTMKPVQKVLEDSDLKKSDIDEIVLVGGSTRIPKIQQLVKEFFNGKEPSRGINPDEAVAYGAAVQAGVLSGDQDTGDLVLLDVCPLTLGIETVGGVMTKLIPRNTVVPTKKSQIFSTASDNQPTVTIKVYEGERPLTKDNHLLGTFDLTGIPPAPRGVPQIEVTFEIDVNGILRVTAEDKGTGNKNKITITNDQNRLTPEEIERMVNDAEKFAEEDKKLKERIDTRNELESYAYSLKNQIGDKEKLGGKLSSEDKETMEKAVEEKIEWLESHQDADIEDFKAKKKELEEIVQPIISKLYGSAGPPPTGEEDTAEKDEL
T2 sequence (P07823 19-654): as the sequence (P11021 19-654) above, with Y295F, A631S counted along it

Binder	fold binding over negative control phage (fd-tet) [1]	fold binding over control phage (fd-tet) [2]	binding result [3]
B1	870 fold	30 fold	
B2	260 fold	30 fold	
B3			binds
